Reference: patent US20060121535

Key:
[1] = system: GST-EEEIYGEFE (SEQ. ID. NO: 1) fusion protein
GST-Crkl (SH3) = GST-Crkl (SH3) (UniProt P46109)
Chain of GST-Crkl (SH3) (P46109 120-303): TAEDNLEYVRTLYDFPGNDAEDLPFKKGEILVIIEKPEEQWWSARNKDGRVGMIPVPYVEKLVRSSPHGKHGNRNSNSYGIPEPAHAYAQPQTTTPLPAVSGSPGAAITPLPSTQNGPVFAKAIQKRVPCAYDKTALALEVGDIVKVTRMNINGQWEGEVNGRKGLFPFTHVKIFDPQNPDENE

Row | Substance | Km of phosphorylation, substrate in solution (Lineweaver-Burk) [1] | Km of phosphorylation, surface-immobilized substrate (Lineweaver-Burk) [1] | Vmax of phosphorylation, substrate in solution (Lineweaver-Burk) [1] | Vmax of phosphorylation, surface-immobilized substrate (Lineweaver-Burk) [1] | Crkl phosphorylation in pure HL60 lysate (Bcr-Abl-) relative to pure K562 lysate (Bcr-Abl+) (GST-Crkl (SH3))
1 | protein-tyrosine kinase p60^c-src (Calbiochem) | Km=2.7±1.0 µM | Km=0.36±0.033 µM | Vmax=8.1±3.1 (arbitrary units) | Vmax=9.7±0.63 (arbitrary units) | –
2 | Bcr-Abl tyrosine kinase in K562 cell lysate | – | – | – | – | the level of Crkl phosphorylation in the pure HL60 cell lysate is only 3.5% of that observed in the pure K562 cell lysate
